The results in this text go back to the Human Domainome abundance scans (Beltran et al. 2025).

± gives the uncertainty stated by the source.

B1: E3 ubiquitin-protein ligase Midline-1, residues 172 to 214; numbered along this chain, O15344 (parent)
chain: GLMCLEHEDEKVNMYCVTDDQLICALCKLVGRHRDHQVAALSE

The variants in the data set derive from B1. Description: abundance fitness (aPCA) (normalised: wild type 0, dead -1); higher = more abundant; growth selection in yeast, the domain comes from the species named. To be noted: Homo sapiens.
With Q37F, the abundance fitness is -0.347 ± 0.13.
As to Q37V, the abundance fitness is -0.208 ± 0.059.
The figure for Q37T is -0.026 ± 0.073; for Q37H it is -0.148 ± 0.097; for A25E it is -0.018 ± 0.055.
The figure for E8C is 0.16 ± 0.066; for E8I it is -0.139 ± 0.16.
As to E8N, the abundance fitness is -0.137 ± 0.11.
The result for E8F reads -0.144 ± 0.17.
The figure for E8S is 0.375 ± 0.058; for L2C it is 0.19 ± 0.092.
Take L2S: the abundance fitness turned out to be 0.279 ± 0.066.
The figure for L2Q is 0.063 ± 0.11; for L2K it is 0.795 ± 0.1; for L2I it is 0.257 ± 0.12.
L29C: the abundance fitness amounted to 0.025 ± 0.081.
The figure for L29G is 0.213 ± 0.045; for L29S it is 0.279 ± 0.055.
The result for L29D reads 0.241 ± 0.079; that for L29E, 0.211 ± 0.06; that for D20Y, -0.464 ± 0.15.
For the variant D20W, the abundance fitness is -0.753 ± 0.1.
The result for D20I reads -0.543 ± 0.15; that for D20A, -0.15 ± 0.059; that for L22M, 0.004 ± 0.11.
The figure for L22S is 0.316 ± 0.11; for L22K it is 0.33 ± 0.076.
The figure for L22H is 0.482 ± 0.19; for G31D it is 0.111 ± 0.13.
Consider G31F, for which the abundance fitness is -0.519 ± 0.14.
The result for I23V reads 0.151 ± 0.082.
For the variant I23A, the abundance fitness was found to be 0.022 ± 0.068.
The result for I23L reads -0.019 ± 0.26.
The result for I23S reads -0.369 ± 0.23; that for I23E, -0.233 ± 0.15; that for C4A, -0.699 ± 0.11.
The result for C4D reads -0.343 ± 0.083.
Take C4Q: the abundance fitness is -0.314 ± 0.079.
As for L41Q, the abundance fitness came to 0.136 ± 0.058.
As to L41P, the abundance fitness came out at 0.297 ± 0.061.
The result for L41Y reads -0.467 ± 0.2; that for L41C, 0.176 ± 0.09.
The figure for M3K is -0.006 ± 0.083; for M3N it is 0.019 ± 0.16.
The figure for M3V is -0.144 ± 0.075.
In the case of E6F, the abundance fitness worked out at 0.023 ± 0.11.
The result for E6Y reads -0.276 ± 0.085.
The result for E6L reads -0.14 ± 0.063.
The result for E6I reads 0.126 ± 0.095; that for E6K, -0.206 ± 0.066.
In the case of Y15A, the abundance fitness was found to be 0.045 ± 0.051.
With Y15Q, the abundance fitness is 0.315 ± 0.075.
The figure for Y15H is 0.151 ± 0.14.
As to Y15C, the abundance fitness amounted to 0.059 ± 0.072.
The result for Y15V reads -0.014 ± 0.059; that for Y15G, -0.015 ± 0.046; that for Y15N, -0.165 ± 0.13.
The result for L26S reads 0.165 ± 0.062; that for L26V, 0.027 ± 0.052; that for H33Y, -0.603 ± 0.22.
The figure for H33D is -0.647 ± 0.1; for H33R it is -0.732 ± 0.073.
In the case of Q21R, the abundance fitness is 0.031 ± 0.051.
The figure for Q21L is -0.154 ± 0.07.
Turning to Q21S, the abundance fitness amounted to 0.042 ± 0.074.
The result for Q21V reads 0.044 ± 0.05; that for Q21M, 0.052 ± 0.094.
The figure for K11S is -0.07 ± 0.063.
As to K11I, the abundance fitness came to 0.284 ± 0.21.
The result for K11R reads -0.012 ± 0.052.
The result for K11C reads 0.148 ± 0.081.
The result for K11N reads 0.027 ± 0.14; that for C27N, -0.478 ± 0.45; that for C27Q, -0.913 ± 0.2.
As to C27T, the abundance fitness is -0.571 ± 0.14.
The result for C27E reads -0.741 ± 0.13; that for C24N, -0.656 ± 0.21; that for C24G, -0.814 ± 0.082.
With V30N, the abundance fitness worked out at 0.147 ± 0.09.
In the case of V30Y, the abundance fitness is -0.049 ± 0.1.
The figure for V30L is -0.028 ± 0.056.
Consider V30M, for which the abundance fitness is -0.039 ± 0.07.
The result for V38M reads -0.18 ± 0.1; that for V38F, 0.124 ± 0.19.
The figure for V38Q is -0.125 ± 0.09; for R34C it is 0.033 ± 0.068; for V17Q it is 0.275 ± 0.065.
The figure for V17H is 0.29 ± 0.095; for V17C it is 0.173 ± 0.072.
Regarding V17L, the abundance fitness was -0.094 ± 0.061.
The result for V17N reads 0.545 ± 0.22; that for M14F, -0.451 ± 0.49; that for M14P, -0.405 ± 0.075.
The figure for M14C is 0.137 ± 0.11; for M14Q it is 0.242 ± 0.066; for M14H it is -0.112 ± 0.3.
Consider E43L, for which the abundance fitness was -0.241 ± 0.12.
The result for E43V reads -0.534 ± 0.16; that for E43W, -0.175 ± 0.15; that for E43Q, -0.317 ± 0.12.
The figure for E43K is 0.091 ± 0.22; for S42M it is -0.262 ± 0.082; for S42L it is -0.342 ± 0.082.
The figure for V12R is 0.024 ± 0.059.
In the case of V12C, the abundance fitness is -0.231 ± 0.37.
As to V12Y, the abundance fitness was -0.02 ± 0.16.
The figure for V12M is -0.042 ± 0.12; for V12E it is -0.122 ± 0.075.
The result for R32C reads -0.021 ± 0.08.
The figure for R32Q is 0.007 ± 0.07.
With R32E, the abundance fitness came out at 0.149 ± 0.064.
For C16V, the abundance fitness is -0.725 ± 0.096.
The figure for C16H is -0.215 ± 0.12.
The figure for C16M is -0.674 ± 0.43.
The result for T18K reads -0.019 ± 0.063; that for T18C, -0.256 ± 0.1.
T18M: the abundance fitness was -0.394 ± 0.15.
The result for T18P reads -0.492 ± 0.14; that for D9C, 0.13 ± 0.08.
Take E10A: the abundance fitness was -0.133 ± 0.059.
The figure for E10G is -0.316 ± 0.047.
The result for E10C reads -0.062 ± 0.074; that for E10P, -0.498 ± 0.19.
Consider D19T, for which the abundance fitness is -0.984 ± 0.31.
The figure for D19Q is -0.557 ± 0.14.
D19S: the abundance fitness is -0.377 ± 0.096.
The result for D19R reads -0.65 ± 0.073.
The result for N13R reads -0.137 ± 0.049; that for N13G, -0.022 ± 0.045.
The figure for N13K is 0.04 ± 0.071; for N13A it is -0.146 ± 0.055.
As to A39V, the abundance fitness is 0.027 ± 0.058.
The figure for A39P is -0.491 ± 0.11.
The result for A39K reads 0.059 ± 0.081; that for A39I, -0.08 ± 0.12; that for G1T, -0.235 ± 0.27.
The figure for G1P is -0.112 ± 0.23; for G1E it is 0.134 ± 0.087; for H36M it is -1.04 ± 0.19.
Turning to H36N, the abundance fitness is -0.376 ± 0.27.
The result for H36Q reads -0.284 ± 0.15; that for L5N, -0.124 ± 0.19; that for L5P, 0.058 ± 0.069.
The figure for L5E is 0.074 ± 0.066; for L5T it is -0.039 ± 0.12; for A40F it is 0.099 ± 0.22.
The result for A40K reads 0.108 ± 0.075; that for A40M, -0.151 ± 0.14.
Consider A40H, for which the abundance fitness was -0.141 ± 0.24.
On to H7K, for which the abundance fitness was -0.604 ± 0.12.
The figure for H7V is -1.34 ± 0.18.
On to H7L, for which the abundance fitness was -1.03 ± 0.14.
The figure for H7E is -0.433 ± 0.081; for H7G it is -0.5 ± 0.057; for H7Q it is -0.551 ± 0.12.
The result for H7M reads -0.66 ± 0.12; that for K28S, 0.013 ± 0.069.
On to K28A, for which the abundance fitness was found to be 0.083 ± 0.059.
The figure for K28H is 0.083 ± 0.098.
The result for K28G reads 0.013 ± 0.045; that for D35H, -0.177 ± 0.14; that for D35A, -0.285 ± 0.073.
The figure for D35K is -0.105 ± 0.068.
With D35V, the abundance fitness is -0.28 ± 0.062.
D35P: the abundance fitness is -0.299 ± 0.15.
In the case of D35F, the abundance fitness is -0.254 ± 0.17.
Turning to D35R, the abundance fitness was -0.287 ± 0.061.
